Measured values from patent publication US20190241648A1 (STATEN BIOTECHNOLOGY B V, published 2019).
Ends that are not written are not given here.

Experiments:
Assay in all cases: cyclic peptide substitution array
ApoC3 peptide F61T = target: T1, ApoC3 peptide F61T (human, cyclic (thioether))
T1 peptide: DKTSEFWDLDPEV
In short: (§1)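 Peptide microarrays incubated with antibody samples, then stained with goat anti-human IgG (Fc) DyLight680 and anti-HA DyLight800 control antibodies, scanned at intensity 7/7 (red/green). Secondary-only pre-stain checked background binding; framing HA peptides served as quality control; substitution effects read as changes in spot intensity.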

ApoC3 peptide D59F = target: T2, ApoC3 peptide D59F (human, thioether (positions not given here); not fully specified (C-terminus, bridges))
T2 peptide: FKFSEFWDLDPEV
In short: as §1

ApoC3 peptide K60Y = target: T3, ApoC3 peptide K60Y (human, cyclic (thioether))
T3 peptide: DYFSEFWDLDPEV
In short: as §1

ApoC3 peptide L67R = target: T4, ApoC3 peptide L67R (human, thioether (positions not given here); not fully specified (bridges); also: thioether between a C-terminal Cys side chain and a modified N-terminus, the Cys is not in the chain)
T4 peptide: DKFSEFWDRDPEV
In short: as §1

ApoC3 peptide K60E = target: T5, ApoC3 peptide K60E (human, cyclic (thioether))
T5 peptide: DEFSEFWDLDPEV
In short: as §1

ApoC3 peptide D68A = target: T6, ApoC3 peptide D68A (human, cyclic (thioether))
T6 peptide: DKFSEFWDLAPEV
In short: as §1

ApoC3 peptide W65T = target: T7, ApoC3 peptide W65T (human, cyclic (thioether))
T7 peptide: DKFSEFTDLDPEV
In short: as §1

ApoC3 peptide D59I = target: T8, ApoC3 peptide D59I (human, thioether (positions not given here); not fully specified (C-terminus, bridges))
T8 peptide: IKFSEFWDLDPEV
In short: as §1

ApoC3 peptide V71A = target: T9, ApoC3 peptide V71A (human, thioether (positions not given here); also: cyclic (thioether), ring places not given here)
T9 peptide: DKFSEFWDLDPEA
In short: as §1

ApoC3 peptide E70K = target: T10, ApoC3 peptide E70K (human, cyclic (thioether))
T10 peptide: DKFSEFWDLDPKV
In short: as §1

ApoC3 peptide D59Y = target: T11, ApoC3 peptide D59Y (human, not fully specified; cyclic (thioether))
T11 peptide: YKFSEFWDLDPEV
In short: as §1

ApoC3 peptide F64N = target: T12, ApoC3 peptide F64N (human, thioether (positions not given here); not fully specified (bridges); also: cyclic (thioether), positions not given here)
T12 peptide: DKFSENWDLDPEV
In short: as §1

ApoC3 peptide W65I = target: T13, ApoC3 peptide W65I (human, cyclic (thioether))
T13 peptide: DKFSEFIDLDPEV
In short: as §1

ApoC3 peptide W65D = target: T14, ApoC3 peptide W65D (human, not fully specified; cyclic (thioether))
T14 peptide: DKFSEFDDLDPEV
In short: as §1

ApoC3 peptide P69Y = target: T15, ApoC3 peptide P69Y (human, not fully specified; cyclic (thioether))
T15 peptide: DKFSEFWDLDYEV
In short: as §1

ApoC3 peptide S62W = target: T16, ApoC3 peptide S62W (human, thioether (positions not given here); also: cyclic (thioether), ring places not given here)
T16 peptide: DKFWEFWDLDPEV
In short: as §1

ApoC3 peptide W65C = target: T17, ApoC3 peptide W65C (human, not fully specified; cyclic (thioether))
T17 peptide: DKFSEFCDLDPEV
In short: as §1

ApoC3 peptide D68V = target: T18, ApoC3 peptide D68V (human, not fully specified; cyclic (thioether))
T18 peptide: DKFSEFWDLVPEV
In short: as §1

ApoC3 peptide S62A = target: T19, ApoC3 peptide S62A (human, not fully specified; cyclic (thioether))
T19 peptide: DKFAEFWDLDPEV
In short: as §1

ApoC3 peptide F61Y = target: T20, ApoC3 peptide F61Y (human, cyclic (thioether))
T20 peptide: DKYSEFWDLDPEV
In short: as §1

ApoC3 peptide D66P = target: T21, ApoC3 peptide D66P (human, not fully specified; cyclic (thioether))
T21 peptide: DKFSEFWPLDPEV
In short: as §1

ApoC3 peptide K60G = target: T22, ApoC3 peptide K60G (human, cyclic (thioether))
T22 peptide: DGFSEFWDLDPEV
In short: as §1

ApoC3 peptide F64P = target: T23, ApoC3 peptide F64P (human, thioether (positions not given here); not fully specified (bridges); also: cyclic (thioether), positions not given here)
T23 peptide: DKFSEPWDLDPEV
In short: as §1

ApoC3 peptide S62R = target: T24, ApoC3 peptide S62R (human, thioether (positions not given here); also: cyclic (thioether), ring places not given here)
T24 peptide: DKFREFWDLDPEV
In short: as §1

ApoC3 peptide E70P = target: T25, ApoC3 peptide E70P (human, cyclic (thioether))
T25 peptide: DKFSEFWDLDPPV
In short: as §1

ApoC3 peptide P69R = target: T26, ApoC3 peptide P69R (human, not fully specified; cyclic (thioether))
T26 peptide: DKFSEFWDLDREV
In short: as §1

ApoC3 peptide F61D = target: T27, ApoC3 peptide F61D (human, cyclic (thioether))
T27 peptide: DKDSEFWDLDPEV
In short: as §1

ApoC3 peptide D66I = target: T28, ApoC3 peptide D66I (human, not fully specified; cyclic (thioether))
T28 peptide: DKFSEFWILDPEV
In short: as §1

ApoC3 peptide S62C = target: T29, ApoC3 peptide S62C (human, not fully specified; cyclic (thioether))
T29 peptide: DKFCEFWDLDPEV
In short: as §1

ApoC3 peptide L67S = target: T30, ApoC3 peptide L67S (human, thioether (positions not given here); not fully specified (bridges); also: thioether between a C-terminal Cys side chain and a modified N-terminus, the Cys is not in the chain)
T30 peptide: DKFSEFWDSDPEV
In short: as §1

ApoC3 peptide S62I = target: T31, ApoC3 peptide S62I (human, thioether (positions not given here); also: cyclic (thioether), ring places not given here)
T31 peptide: DKFIEFWDLDPEV
In short: as §1

- % of binding to wild-type peptide (ApoC3 peptide F61T): 40.3%
- % of binding to wild-type peptide (ApoC3 peptide D59F): 31.6%
- % of binding to wild-type peptide (ApoC3 peptide K60Y): 56.3%
- % of binding to wild-type peptide (ApoC3 peptide L67R): 15.4%
- % of binding to wild-type peptide (ApoC3 peptide K60E): 362%
- % of binding to wild-type peptide (ApoC3 peptide D68A): 1.75%
- % of binding to wild-type peptide (ApoC3 peptide W65T): 0%
- % of binding to wild-type peptide (ApoC3 peptide D59I): 49.1%
- % of binding to wild-type peptide (ApoC3 peptide V71A): 66.3%
- % of binding to wild-type peptide (ApoC3 peptide E70K): 60.1%
- % of binding to wild-type peptide (ApoC3 peptide D59Y): 50.3%
- % of binding to wild-type peptide (ApoC3 peptide F64N): 234%
- % of binding to wild-type peptide (ApoC3 peptide W65I): 0%
- % of binding to wild-type peptide (ApoC3 peptide W65D): 0%
- % of binding to wild-type peptide (ApoC3 peptide P69Y): 15.4%
- % of binding to wild-type peptide (ApoC3 peptide S62W): 0%
- % of binding to wild-type peptide (ApoC3 peptide W65C): 0.08%
- % of binding to wild-type peptide (ApoC3 peptide D68V): 0%
- % of binding to wild-type peptide (ApoC3 peptide S62A): 29.6%
- % of binding to wild-type peptide (ApoC3 peptide F61Y): 126%
- % of binding to wild-type peptide (ApoC3 peptide D66P): 0%
- % of binding to wild-type peptide (ApoC3 peptide K60G): 143%
- % of binding to wild-type peptide (ApoC3 peptide F64P): 528%
- % of binding to wild-type peptide (ApoC3 peptide S62R): 1.45%
- % of binding to wild-type peptide (ApoC3 peptide E70P): 55.2%
- % of binding to wild-type peptide (ApoC3 peptide P69R): 20.1%
- % of binding to wild-type peptide (ApoC3 peptide F61D): 16%
- % of binding to wild-type peptide (ApoC3 peptide D66I): 0%
- % of binding to wild-type peptide (ApoC3 peptide S62C): 0%
- % of binding to wild-type peptide (ApoC3 peptide L67S): 36.5%
- % of binding to wild-type peptide (ApoC3 peptide S62I): 0.64%
B1: Llama antibody 5E5 (antibody, V domains shown)
VH: QLQLVESGGGLVQPGGSLRLSCAASGFTFGTYSMRWVRQVPRKALEWVSSISTDGGGTAYRDSVKGRFTISRDNAKNTLYLQMNNLKPEDTAIYYCVIAGYSDWGQGTQVTVSS
VL: ATMLTQSPGSLSVVPGESASISCKTSQGLVHSDGKTYFYWFLQKPGQSPQQLIYQVSNRASGVPDRFTGSGSGTDFTLKISGVKAEDAGVYYCAQGTYYPHTFGSGTRLEIK
notes: detected with goat anti-human IgG (Fc); also called mAb 5E5
